B1: IraP with a C-terminal His10-tag, purified (natural protein, E. coli, UniProt P0AAN9 1-86, looked up)
chain: MKNLIAELLFKLAQKEEESKELCAQVEALEIIVTAMLRNMAQNDQQRLIDQVEGALYEVKPDASIPDDDTELLRDYVKKLLKHPRQ
notes: IraP, anti-adaptor induced by phosphate starvation, E. coli; also called His10-tagged IraP; source: E. coli, overexpressed, purified (essentially as Bougdour et al., 2008); not shown: His10, C-terminal, kept
B2: His10-tagged IraD (natural protein, E. coli, UniProt P39375 1-130, looked up)
chain: MMRQSLQAVLPEISGNKTSSLRKSVCSDLLTLFNSPHSALPSLLVSGMPEWQVHNPSDKHLQSWYCRQLRSALLFHEPRIAALQVNLKEAYCHTLAISLEIMLYHDDEPLTFDLVWDNGGWRSATLENVS
notes: IraD, anti-adaptor induced by DNA damage, E. coli; source: E. coli, overexpressed, purified (essentially as Bougdour et al., 2008)
B3: RssB, full-length, untagged, purified (natural protein, E. coli, UniProt P0AEV1 1-337, looked up)
chain: MTQPLVGKQILIVEDEQVFRSLLDSWFSSLGATTVLAADGVDALELLGGFTPDLMICDIAMPRMNGLKLLEHIRNRGDQTPVLVISATENMADIAKALRLGVEDVLLKPVKDLNRLREMVFACLYPSMFNSRVEEEERLFRDWDAMVDNPAAAAKLLQELQPPVQQVISHCRVNYRQLVAADKPGLVLDIAALSENDLAFYCLDVTRAGHNGVLAALLLRALFNGLLQEQLAHQNQRLPELGALLKQVNHLLRQANLPGQFPLLVGYYHRELKNLILVSAGLNATLNTGEHQVQISNGVPLGTLGNAYLNQLSQRCDAWQCQIWGTGGRLRLMLSAE
notes: RssB (SprE), adaptor protein of ClpXP, E. coli; residues 1-337 by the printed domain limits; Monomeric and dimeric RssB were separated by preparative SEC; degradation assays used monomeric RssB; also called SprE; full-length RssB; source: E. coli, Ub-fusion system, purified (IMAC, preparative SEC)
B4: RssBN, N-terminal domain of RssB (residues 1-129), untagged, purified (domain or fragment, E. coli, UniProt P0AEV1 1-129, looked up)
chain: MTQPLVGKQILIVEDEQVFRSLLDSWFSSLGATTVLAADGVDALELLGGFTPDLMICDIAMPRMNGLKLLEHIRNRGDQTPVLVISATENMADIAKALRLGVEDVLLKPVKDLNRLREMVFACLYPSMF
notes: RssB, E. coli, N-terminal domain, residues 1-129; also called N-domain of RssB; receiver domain; source: E. coli, Ub-fusion system, purified (IMAC, SEC)

Assays:
[1] = biological target: T1, RssBC, C-terminal domain of RssB (residues 131-337), untagged, purified (E. coli, UniProt P0AEV1 131-337); experiment: pull-down; purified IraP immobilised on Ni-NTA agarose beads via a C-terminal His10-tag; purified RssB, RssBN or RssBC added; washed, eluted with imidazole; immunoblotting; settings: both partners purified
T1 construct: RssB, E. coli, C-terminal effector domain, residues 131-337; also called C-terminal effector domain of RssB; source: E. coli, Ub-fusion system, purified (IMAC, SEC)
T1 sequence (looked up): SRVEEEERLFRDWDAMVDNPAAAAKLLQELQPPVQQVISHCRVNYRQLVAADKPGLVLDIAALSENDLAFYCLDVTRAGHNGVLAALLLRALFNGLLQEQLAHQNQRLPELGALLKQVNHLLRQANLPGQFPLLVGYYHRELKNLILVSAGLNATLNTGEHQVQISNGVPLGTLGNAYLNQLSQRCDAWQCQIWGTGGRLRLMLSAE

[2] = biological target: B3; experiment: pull-down; purified His10-tagged IraD immobilised on Ni-NTA agarose beads; purified untagged RssB, RssBN or RssBC added; washed, eluted with imidazole; SDS-PAGE, CBB; settings: both partners purified
[3] = biological target: the molecule itself; experiment: SEC; Superdex 75; 5 nmol of IraD, RssBN or the IraD-RssBN complex; chilled GF buffer (20 mM Tris-HCl pH 7.5, 10 mM MgCl2, 0.1 mM EDTA, 1 mM DTT, 140 mM NaCl, 5% glycerol, 0.005% Triton X-100); fractions on SDS-PAGE, CBB
[4] = biological target: the molecule itself; experiment: SEC; preparative grade SEC in the purification of untagged RssB, separating monomeric and dimeric RssB

B1
binding result [1]: binds

B2
binding result [2]: binds
stoichiometry N [3]: 2

B3
stoichiometry N [4]: 2

B4
stoichiometry N [3]: 2

Reference: article PMC4428439, “Anti-adaptors use distinct modes of binding to inhibit the RssB-dependent turnover of RpoS (σ^S) by ClpXP” (Frontiers in Molecular Biosciences, 2015)
